Biological target: quenched fluorescein gelatin substrate (DQ gelatin, Invitrogen D12054)

Chain of catalytic rat MMP9 (80 kD active MMP9) (enzyme) (P50282 108-708 limits assumed): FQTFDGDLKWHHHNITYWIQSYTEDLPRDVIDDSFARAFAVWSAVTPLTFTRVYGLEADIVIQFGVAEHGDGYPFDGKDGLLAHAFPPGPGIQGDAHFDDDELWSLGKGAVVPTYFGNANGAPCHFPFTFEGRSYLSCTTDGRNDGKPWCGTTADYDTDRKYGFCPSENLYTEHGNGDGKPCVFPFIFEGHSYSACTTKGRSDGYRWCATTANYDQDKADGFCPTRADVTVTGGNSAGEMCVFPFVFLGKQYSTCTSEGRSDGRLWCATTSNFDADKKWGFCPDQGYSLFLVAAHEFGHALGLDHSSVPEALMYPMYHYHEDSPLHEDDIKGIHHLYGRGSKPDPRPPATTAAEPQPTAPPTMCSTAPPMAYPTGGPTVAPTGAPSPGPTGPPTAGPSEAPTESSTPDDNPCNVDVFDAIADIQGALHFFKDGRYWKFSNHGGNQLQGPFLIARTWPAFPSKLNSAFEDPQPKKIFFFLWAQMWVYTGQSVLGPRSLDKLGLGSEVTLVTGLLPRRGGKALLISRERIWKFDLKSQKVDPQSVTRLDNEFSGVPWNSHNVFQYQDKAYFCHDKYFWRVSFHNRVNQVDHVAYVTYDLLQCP

gelatinase activity by in situ zymography, Intensity (RLU × 10^6), Mean: 1.09e+08 RLU
Substance: catalytic rat MMP9 (80 kD active MMP9) (enzyme)
